This data set addresses OsWRKY53 (WT) (Oryza sativa (rice)) (UniProt A7BEY7). The data set is described as follows: EMSA. Particulars: 12 mM HEPES-KOH pH 8.0, 60 mM KCl, 4 mM MgCl2, 1 mM EDTA, 12% glycerol, 1 mM DTT, 2.5 mM PMSF, 0.1 ug protein in 20 ul, 20 min on ice; 6% PAGE in 1x TBE at …. For orientation: A gel shift assay detects complexes by their altered migration in electrophoresis.

Chain of OsWRKY53 (WT) (Oryza sativa (rice)) (A7BEY7 entry or part of it): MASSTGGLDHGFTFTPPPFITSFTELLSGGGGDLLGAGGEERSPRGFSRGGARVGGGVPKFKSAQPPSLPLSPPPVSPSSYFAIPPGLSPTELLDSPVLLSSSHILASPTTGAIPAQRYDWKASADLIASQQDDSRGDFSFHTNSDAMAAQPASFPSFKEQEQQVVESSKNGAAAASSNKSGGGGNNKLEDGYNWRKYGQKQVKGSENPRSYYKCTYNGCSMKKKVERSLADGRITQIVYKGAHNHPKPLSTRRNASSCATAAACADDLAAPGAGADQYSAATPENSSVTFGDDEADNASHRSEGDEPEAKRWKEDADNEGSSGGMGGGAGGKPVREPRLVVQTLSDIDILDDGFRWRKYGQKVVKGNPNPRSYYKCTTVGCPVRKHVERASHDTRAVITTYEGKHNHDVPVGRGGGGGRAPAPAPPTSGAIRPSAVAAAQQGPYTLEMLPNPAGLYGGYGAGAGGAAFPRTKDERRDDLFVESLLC

As for “TTTGGGGATGCTTCGGCGAAGGGGGTGAGGTCAAAGCTCGTGCGGTTTGACCGGTCAGACGAGGCGGCTGAGGCTCGCGC (double strand) [W-box probe (W)]”, the binding result is “binds”.

The values above are taken from article PMC4043820.
